B1: CE115HA000 K64A (antibody, name in Kabat numbering, V domains shown)
VH: QVQLVESGGGVVQPGRSLRLSCAASGFTFSNAWMHWVRQAPGKGLEWVAQIKAKSNNYATYYAESVAGRFTISRDDSKNSLYLQMNSLKTEDTAVYYCRYVHYGAYYGVDAWGQGTTVTVSS
VL: DIVMTQSPLSLPVTPGEPASISCRSSQSLVHSNRNTYLHWYQQKPGQAPRLLIYKVSNRFSGVPDRFSGSGSGTDFTLKISRVEAEDVGVYYCGQGTQVPYTFGQGTKLEIK
B2: CE115HA000 N31W (antibody, name in Kabat numbering, V domains shown)
VH: QVQLVESGGGVVQPGRSLRLSCAASGFTFSWAWMHWVRQAPGKGLEWVAQIKAKSNNYATYYAESVKGRFTISRDDSKNSLYLQMNSLKTEDTAVYYCRYVHYGAYYGVDAWGQGTTVTVSS
VL: DIVMTQSPLSLPVTPGEPASISCRSSQSLVHSNRNTYLHWYQQKPGQAPRLLIYKVSNRFSGVPDRFSGSGSGTDFTLKISRVEAEDVGVYYCGQGTQVPYTFGQGTKLEIK
B3: CE115HA000 N31A (antibody, name in Kabat numbering, V domains shown)
VH: QVQLVESGGGVVQPGRSLRLSCAASGFTFSAAWMHWVRQAPGKGLEWVAQIKAKSNNYATYYAESVKGRFTISRDDSKNSLYLQMNSLKTEDTAVYYCRYVHYGAYYGVDAWGQGTTVTVSS
VL: DIVMTQSPLSLPVTPGEPASISCRSSQSLVHSNRNTYLHWYQQKPGQAPRLLIYKVSNRFSGVPDRFSGSGSGTDFTLKISRVEAEDVGVYYCGQGTQVPYTFGQGTKLEIK
B4: CE115HA000 N31F (antibody, name in Kabat numbering, V domains shown)
VH: QVQLVESGGGVVQPGRSLRLSCAASGFTFSFAWMHWVRQAPGKGLEWVAQIKAKSNNYATYYAESVKGRFTISRDDSKNSLYLQMNSLKTEDTAVYYCRYVHYGAYYGVDAWGQGTTVTVSS
VL: DIVMTQSPLSLPVTPGEPASISCRSSQSLVHSNRNTYLHWYQQKPGQAPRLLIYKVSNRFSGVPDRFSGSGSGTDFTLKISRVEAEDVGVYYCGQGTQVPYTFGQGTKLEIK
B5: CE115HA000 N31S (antibody, name in Kabat numbering, V domains shown)
VH: QVQLVESGGGVVQPGRSLRLSCAASGFTFSSAWMHWVRQAPGKGLEWVAQIKAKSNNYATYYAESVKGRFTISRDDSKNSLYLQMNSLKTEDTAVYYCRYVHYGAYYGVDAWGQGTTVTVSS
VL: DIVMTQSPLSLPVTPGEPASISCRSSQSLVHSNRNTYLHWYQQKPGQAPRLLIYKVSNRFSGVPDRFSGSGSGTDFTLKISRVEAEDVGVYYCGQGTQVPYTFGQGTKLEIK
B6: CE115HA000 N31D (antibody, name in Kabat numbering, V domains shown)
VH: QVQLVESGGGVVQPGRSLRLSCAASGFTFSDAWMHWVRQAPGKGLEWVAQIKAKSNNYATYYAESVKGRFTISRDDSKNSLYLQMNSLKTEDTAVYYCRYVHYGAYYGVDAWGQGTTVTVSS
VL: DIVMTQSPLSLPVTPGEPASISCRSSQSLVHSNRNTYLHWYQQKPGQAPRLLIYKVSNRFSGVPDRFSGSGSGTDFTLKISRVEAEDVGVYYCGQGTQVPYTFGQGTKLEIK
B7: CE115HA000 N31G (antibody, name in Kabat numbering, V domains shown)
VH: QVQLVESGGGVVQPGRSLRLSCAASGFTFSGAWMHWVRQAPGKGLEWVAQIKAKSNNYATYYAESVKGRFTISRDDSKNSLYLQMNSLKTEDTAVYYCRYVHYGAYYGVDAWGQGTTVTVSS
VL: DIVMTQSPLSLPVTPGEPASISCRSSQSLVHSNRNTYLHWYQQKPGQAPRLLIYKVSNRFSGVPDRFSGSGSGTDFTLKISRVEAEDVGVYYCGQGTQVPYTFGQGTKLEIK
B8: CE115HA000 N53A (antibody, name in Kabat numbering, V domains shown)
VH: QVQLVESGGGVVQPGRSLRLSCAASGFTFSNAWMHWVRQAPGKGLEWVAQIKAKSANYATYYAESVKGRFTISRDDSKNSLYLQMNSLKTEDTAVYYCRYVHYGAYYGVDAWGQGTTVTVSS
VL: DIVMTQSPLSLPVTPGEPASISCRSSQSLVHSNRNTYLHWYQQKPGQAPRLLIYKVSNRFSGVPDRFSGSGSGTDFTLKISRVEAEDVGVYYCGQGTQVPYTFGQGTKLEIK
B9: CE115HA000 K75T (antibody, name in Kabat numbering, V domains shown)
VH: QVQLVESGGGVVQPGRSLRLSCAASGFTFSNAWMHWVRQAPGKGLEWVAQIKAKSNNYATYYAESVKGRFTISRDDSTNSLYLQMNSLKTEDTAVYYCRYVHYGAYYGVDAWGQGTTVTVSS
VL: DIVMTQSPLSLPVTPGEPASISCRSSQSLVHSNRNTYLHWYQQKPGQAPRLLIYKVSNRFSGVPDRFSGSGSGTDFTLKISRVEAEDVGVYYCGQGTQVPYTFGQGTKLEIK
B10: CE115HA000 K64S (antibody, name in Kabat numbering, V domains shown)
VH: QVQLVESGGGVVQPGRSLRLSCAASGFTFSNAWMHWVRQAPGKGLEWVAQIKAKSNNYATYYAESVSGRFTISRDDSKNSLYLQMNSLKTEDTAVYYCRYVHYGAYYGVDAWGQGTTVTVSS
VL: DIVMTQSPLSLPVTPGEPASISCRSSQSLVHSNRNTYLHWYQQKPGQAPRLLIYKVSNRFSGVPDRFSGSGSGTDFTLKISRVEAEDVGVYYCGQGTQVPYTFGQGTKLEIK
B11: CE115HA000 N31I (antibody, name in Kabat numbering, V domains shown)
VH: QVQLVESGGGVVQPGRSLRLSCAASGFTFSIAWMHWVRQAPGKGLEWVAQIKAKSNNYATYYAESVKGRFTISRDDSKNSLYLQMNSLKTEDTAVYYCRYVHYGAYYGVDAWGQGTTVTVSS
VL: DIVMTQSPLSLPVTPGEPASISCRSSQSLVHSNRNTYLHWYQQKPGQAPRLLIYKVSNRFSGVPDRFSGSGSGTDFTLKISRVEAEDVGVYYCGQGTQVPYTFGQGTKLEIK
B12: CE115HA000 K64D (antibody, name in Kabat numbering, V domains shown)
VH: QVQLVESGGGVVQPGRSLRLSCAASGFTFSNAWMHWVRQAPGKGLEWVAQIKAKSNNYATYYAESVDGRFTISRDDSKNSLYLQMNSLKTEDTAVYYCRYVHYGAYYGVDAWGQGTTVTVSS
VL: DIVMTQSPLSLPVTPGEPASISCRSSQSLVHSNRNTYLHWYQQKPGQAPRLLIYKVSNRFSGVPDRFSGSGSGTDFTLKISRVEAEDVGVYYCGQGTQVPYTFGQGTKLEIK
B13: CE115HA000 L78I (antibody, name in Kabat numbering, V domains shown)
VH: QVQLVESGGGVVQPGRSLRLSCAASGFTFSNAWMHWVRQAPGKGLEWVAQIKAKSNNYATYYAESVKGRFTISRDDSKNSIYLQMNSLKTEDTAVYYCRYVHYGAYYGVDAWGQGTTVTVSS
VL: DIVMTQSPLSLPVTPGEPASISCRSSQSLVHSNRNTYLHWYQQKPGQAPRLLIYKVSNRFSGVPDRFSGSGSGTDFTLKISRVEAEDVGVYYCGQGTQVPYTFGQGTKLEIK
B14: CE115HA000 N31Q (antibody, name in Kabat numbering, V domains shown)
VH: QVQLVESGGGVVQPGRSLRLSCAASGFTFSQAWMHWVRQAPGKGLEWVAQIKAKSNNYATYYAESVKGRFTISRDDSKNSLYLQMNSLKTEDTAVYYCRYVHYGAYYGVDAWGQGTTVTVSS
VL: DIVMTQSPLSLPVTPGEPASISCRSSQSLVHSNRNTYLHWYQQKPGQAPRLLIYKVSNRFSGVPDRFSGSGSGTDFTLKISRVEAEDVGVYYCGQGTQVPYTFGQGTKLEIK
B15: CE115HA000 K64E (antibody, name in Kabat numbering, V domains shown)
VH: QVQLVESGGGVVQPGRSLRLSCAASGFTFSNAWMHWVRQAPGKGLEWVAQIKAKSNNYATYYAESVEGRFTISRDDSKNSLYLQMNSLKTEDTAVYYCRYVHYGAYYGVDAWGQGTTVTVSS
VL: DIVMTQSPLSLPVTPGEPASISCRSSQSLVHSNRNTYLHWYQQKPGQAPRLLIYKVSNRFSGVPDRFSGSGSGTDFTLKISRVEAEDVGVYYCGQGTQVPYTFGQGTKLEIK
B16: CE115HA000 N31K (antibody, name in Kabat numbering, V domains shown)
VH: QVQLVESGGGVVQPGRSLRLSCAASGFTFSKAWMHWVRQAPGKGLEWVAQIKAKSNNYATYYAESVKGRFTISRDDSKNSLYLQMNSLKTEDTAVYYCRYVHYGAYYGVDAWGQGTTVTVSS
VL: DIVMTQSPLSLPVTPGEPASISCRSSQSLVHSNRNTYLHWYQQKPGQAPRLLIYKVSNRFSGVPDRFSGSGSGTDFTLKISRVEAEDVGVYYCGQGTQVPYTFGQGTKLEIK
B17: CE115HA000 N31Y (antibody, name in Kabat numbering, V domains shown)
VH: QVQLVESGGGVVQPGRSLRLSCAASGFTFSYAWMHWVRQAPGKGLEWVAQIKAKSNNYATYYAESVKGRFTISRDDSKNSLYLQMNSLKTEDTAVYYCRYVHYGAYYGVDAWGQGTTVTVSS
VL: DIVMTQSPLSLPVTPGEPASISCRSSQSLVHSNRNTYLHWYQQKPGQAPRLLIYKVSNRFSGVPDRFSGSGSGTDFTLKISRVEAEDVGVYYCGQGTQVPYTFGQGTKLEIK
B18: CE115HA000 N31H (antibody, name in Kabat numbering, V domains shown)
VH: QVQLVESGGGVVQPGRSLRLSCAASGFTFSHAWMHWVRQAPGKGLEWVAQIKAKSNNYATYYAESVKGRFTISRDDSKNSLYLQMNSLKTEDTAVYYCRYVHYGAYYGVDAWGQGTTVTVSS
VL: DIVMTQSPLSLPVTPGEPASISCRSSQSLVHSNRNTYLHWYQQKPGQAPRLLIYKVSNRFSGVPDRFSGSGSGTDFTLKISRVEAEDVGVYYCGQGTQVPYTFGQGTKLEIK
B19: CE115HA000 N31R (antibody, name in Kabat numbering, V domains shown)
VH: QVQLVESGGGVVQPGRSLRLSCAASGFTFSRAWMHWVRQAPGKGLEWVAQIKAKSNNYATYYAESVKGRFTISRDDSKNSLYLQMNSLKTEDTAVYYCRYVHYGAYYGVDAWGQGTTVTVSS
VL: DIVMTQSPLSLPVTPGEPASISCRSSQSLVHSNRNTYLHWYQQKPGQAPRLLIYKVSNRFSGVPDRFSGSGSGTDFTLKISRVEAEDVGVYYCGQGTQVPYTFGQGTKLEIK
B20: CE115HA000 K64Q (antibody, name in Kabat numbering, V domains shown)
VH: QVQLVESGGGVVQPGRSLRLSCAASGFTFSNAWMHWVRQAPGKGLEWVAQIKAKSNNYATYYAESVQGRFTISRDDSKNSLYLQMNSLKTEDTAVYYCRYVHYGAYYGVDAWGQGTTVTVSS
VL: DIVMTQSPLSLPVTPGEPASISCRSSQSLVHSNRNTYLHWYQQKPGQAPRLLIYKVSNRFSGVPDRFSGSGSGTDFTLKISRVEAEDVGVYYCGQGTQVPYTFGQGTKLEIK

What follows are binders tested against T1, CD3ε homodimer protein (human, UniProt P07766 23-126, limits assumed, sulfo-tag or biotin label in some ECL assays) (assay: SPR, CD3ε homodimer on chip;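 note: biacore SPR with antibody variants flowed as analyte over amine-coupled CD3ε homodimer on a CM chip, bound amount of each single-residue H chain variant over that of parent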).
T1 construct: also called human CD3ε homodimer protein; CD3 (CD3ε)
T1 sequence (P07766 23-126 limits assumed): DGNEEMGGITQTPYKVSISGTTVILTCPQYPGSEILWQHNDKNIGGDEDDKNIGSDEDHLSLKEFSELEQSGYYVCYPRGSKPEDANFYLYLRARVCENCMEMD

| Binder | ratio of amounts bound vs CE115HA000 |
| --- | --- |
| B1 | 0.32 |
| B2 | 0.63 |
| B3 | 0.5 |
| B4 | 0.62 |
| B5 | 0.81 |
| B6 | 0.37 |
| B7 | 0.39 |
| B8 | 0.7 |
| B9 | 9.34 |
| B10 | 0.84 |
| B11 | 0.81 |
| B12 | 0.72 |
| B13 | 1.34 |
| B14 | 0.49 |
| B15 | 0.74 |
| B16 | 1.01 |
| B17 | 0.64 |
| B18 | 0.68 |
| B19 | 1.14 |
| B20 | 0.89 |
